For test [1], the target named is T1, Casper (192-480) (human, UniProt O15519 192-480).
T1 construct: also called C-terminal protease-like domain of Casper
The test can be described thus: co-immunoprecipitation in 293 cells.

The next test has as its target T2, CrmA (UniProt P07385 1-341).
T2 construct: also called Myc-CrmA
Nature of the test: co-transfection and co-immunoprecipitation in mammalian cells.

The target of test [2] is T1, Casper (192-480). Nature of the test: anti-Flag immunoprecipitation, caspase-3 immunoblot, 293 cells.

The source of these data is US7528244 (Amgen, dated 2009).

T1 sequence (O15519 192-480): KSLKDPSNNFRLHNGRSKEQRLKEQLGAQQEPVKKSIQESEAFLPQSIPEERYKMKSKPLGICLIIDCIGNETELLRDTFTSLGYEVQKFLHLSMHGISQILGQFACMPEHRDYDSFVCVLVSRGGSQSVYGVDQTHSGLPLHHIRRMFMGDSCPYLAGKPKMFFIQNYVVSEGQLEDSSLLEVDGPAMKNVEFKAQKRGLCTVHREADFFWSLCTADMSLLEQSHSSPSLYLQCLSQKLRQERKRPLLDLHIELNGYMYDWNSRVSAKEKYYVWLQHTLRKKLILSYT

B1: FADD (other, UniProt Q13158 1-208, looked up)
chain: MDPFLVLLHSVSSSLSSSELTELKFLCLGRVGKRKLERVQSGLDLFSMLLEQNDLEPGHTELLRELLASLRRHDLLRRVDDFEAGAAAGAAPGEEDLCAAFNVICDNVGKDWRRLARQLKVSDTKIDSIEDRYPRNLTERVRESLRIWKNTEKENATVAHLVGALRSCQMNLVADLVQEVQQARDLQNRSGAMSPMSWNSDASTSEAS
notes: also called Flag-tagged FADD; AU1-tagged FADD
As for B1, in the test with Casper (192-480) [1], the binding result was “no binding”.

B2: caspase-3 (enzyme, UniProt P42574 1-277, looked up)
chain: MENTENSVDSKSIKNLEPKIIHGSESMDSGISLDNSYKMDYPEMGLCIIINNKNFHKSTGMTSRSGTDVDAANLRETFRNLKYEVRNKNDLTREEIVELMRDVSKEDHSKRSSFVCVLLSHGEEGIIFGTNGPVDLKKITNFFRGDRCRSLTGKPKLFIIQACRGTELDCGIETDSGVDDDMACHKIPVEADFLYAYSTAPGYYSWRNSKDGSWFIQSLCAMLKQYADKLEFMHILTRVNRKVATEFESFSFDATFHAKKQIPCIVSMLTKELYFYH
notes: also called caspase-3 precursor
With B2, the binding result in the test with CrmA is given as “no binding”; with Casper (192-480) [2], “binds”.
